These are literature values, as cited in patent US10906951B2, “Modified natural killer cells and natural killer cell lines having increased cytotoxicity” (ONK THERAPEUTICS LIMITED, priority 2015, dated 2021).

Residue numbers refer to the chain shown, from its start. Names and notes keep the numbering of the source.

Sequences and labels used below:
B1: D269H: TRAIL variant, Van der Sloot 2006 (protein, UniProt P50591 1-281, looked up, variant D269H)
Tumor necrosis factor ligand …: MAMMEVQGGPSLGQTCVLIVIFTVLLQSLCVAVTYVYFTNELKQMQDKYSKSGIACFLKEDDSYWDPNDEESMNSPCWQVKWQLRQLVRKMILRTSEETISTVQEKQQNISPLVRERGPQRVAAHITGTRGRSNTLSSPNSKNEKALGRKINSWESSRSGHSFLSNLHLRNGELVIHEKGFYYIYSQTYFRFQEEIKENTKNDKQMVQYIYKYTSYPDPILLMKSARNSCWSKDAEYGLYSIYQGGIFELKENDRIFVSVTNEHLIDMHHEASFFGAFLVG
B2: T214R/E195R: TRAIL variant, Van der Sloot 2006 (protein, UniProt P50591 1-281, looked up, variant T214R E195R)
Tumor necrosis factor ligand …: B1 Tumor necrosis factor ligand … with E195R, T214R, H269D
B3: T214R: TRAIL variant, Van der Sloot 2006 (protein, UniProt P50591 1-281, looked up, variant T214R)
Tumor necrosis factor ligand …: B1 Tumor necrosis factor ligand … with T214R, H269D
B4: E195R: TRAIL variant, Van der Sloot 2006 (protein, UniProt P50591 1-281, looked up, variant E195R)
Tumor necrosis factor ligand …: B1 Tumor necrosis factor ligand … with E195R, H269D
B5: T214R/D269H: TRAIL variant, Van der Sloot 2006 (protein, UniProt P50591 1-281, looked up, variant T214R D269H)
Tumor necrosis factor ligand …: B1 Tumor necrosis factor ligand … with T214R
B6: S215E: TRAIL DR4 variant, WO 2009/066174 (protein, UniProt P50591 1-281, looked up, variant S215E)
Tumor necrosis factor ligand …: B1 Tumor necrosis factor ligand … with S215E, H269D
B7: G131R/N199R/K201H: TRAIL DR4 variant, WO 2009/066174 (protein, UniProt P50591 1-281, looked up, variant G131R N199R K201H)
Tumor necrosis factor ligand …: B1 Tumor necrosis factor ligand … with G131R, N199R, K201H, H269D
B8: K201H: TRAIL DR4 variant, WO 2009/066174 (protein, UniProt P50591 1-281, looked up, variant K201H)
Tumor necrosis factor ligand …: B1 Tumor necrosis factor ligand … with K201H, H269D
B9: K204L: TRAIL DR4 variant, WO 2009/066174 (protein, UniProt P50591 1-281, looked up, variant K204L)
Tumor necrosis factor ligand …: B1 Tumor necrosis factor ligand … with K204L, H269D
B10: Q193H: TRAIL DR4 variant, WO 2009/066174 (protein, UniProt P50591 1-281, looked up, variant Q193H)
Tumor necrosis factor ligand …: B1 Tumor necrosis factor ligand … with Q193H, H269D
B11: K251E: TRAIL DR4 variant, WO 2009/066174 (protein, UniProt P50591 1-281, looked up, variant K251E)
Tumor necrosis factor ligand …: B1 Tumor necrosis factor ligand … with K251E, H269D
B12: G131R: TRAIL DR4 variant, WO 2009/066174 (protein, UniProt P50591 1-281, looked up, variant G131R)
Tumor necrosis factor ligand …: B1 Tumor necrosis factor ligand … with G131R, H269D
B13: N199H/K201R: TRAIL DR4 variant, WO 2009/066174 (protein, UniProt P50591 1-281, looked up, variant N199H K201R)
Tumor necrosis factor ligand …: B1 Tumor necrosis factor ligand … with N199H, K201R, H269D
B14: D218H: TRAIL DR4 variant, WO 2009/066174 (protein, UniProt P50591 1-281, looked up, variant D218H)
Tumor necrosis factor ligand …: B1 Tumor necrosis factor ligand … with D218H, H269D
B15: K212R: TRAIL DR4 variant, WO 2009/066174 (protein, UniProt P50591 1-281, looked up, variant K212R)
Tumor necrosis factor ligand …: B1 Tumor necrosis factor ligand … with K212R, H269D
B16: G131R/D218H: TRAIL DR4 variant, WO 2009/066174 (protein, UniProt P50591 1-281, looked up, variant G131R D218H)
Tumor necrosis factor ligand …: B1 Tumor necrosis factor ligand … with G131R, D218H, H269D
B17: S215K: TRAIL DR4 variant, WO 2009/066174 (protein, UniProt P50591 1-281, looked up, variant S215K)
Tumor necrosis factor ligand …: B1 Tumor necrosis factor ligand … with S215K, H269D
B18: N199R: TRAIL DR4 variant, WO 2009/066174 (protein, UniProt P50591 1-281, looked up, variant N199R)
Tumor necrosis factor ligand …: B1 Tumor necrosis factor ligand … with N199R, H269D
B19: K204E: TRAIL DR4 variant, WO 2009/066174 (protein, UniProt P50591 1-281, looked up, variant K204E)
Tumor necrosis factor ligand …: B1 Tumor necrosis factor ligand … with K204E, H269D
B20: S215H: TRAIL DR4 variant, WO 2009/066174 (protein, UniProt P50591 1-281, looked up, variant S215H)
Tumor necrosis factor ligand …: B1 Tumor necrosis factor ligand … with S215H, H269D
B21: R149K: TRAIL DR4 variant, WO 2009/066174 (protein, UniProt P50591 1-281, looked up, variant R149K)
Tumor necrosis factor ligand …: B1 Tumor necrosis factor ligand … with R149K, H269D
B22: K251D: TRAIL DR4 variant, WO 2009/066174 (protein, UniProt P50591 1-281, looked up, variant K251D)
Tumor necrosis factor ligand …: B1 Tumor necrosis factor ligand … with K251D, H269D
B23: G131R/R149I/S159R/S215D: 4C9, a DR4-specific TRAIL variant; DNA sequence SEQ ID NO: 14 (protein, listed as Homo sapiens)
chain: B1 Tumor necrosis factor ligand … with G131R, R149I, S159R, S215D, H269D
B24: K251Q: TRAIL DR4 variant, WO 2009/066174 (protein, UniProt P50591 1-281, looked up, variant K251Q)
Tumor necrosis factor ligand …: B1 Tumor necrosis factor ligand … with K251Q, H269D
B25: G131R/N199R/K201H/R149I/S159R/S215D: TRAIL DR4 variant, WO 2009/066174 (protein, UniProt P50591 1-281, looked up, variant G131R N199R K201H R149I S159R S215D)
Tumor necrosis factor ligand …: B1 Tumor necrosis factor ligand … with G131R, R149I, S159R, N199R, K201H, S215D, H269D
B26: G131K: TRAIL DR4 variant, WO 2009/066174 (protein, UniProt P50591 1-281, looked up, variant G131K)
Tumor necrosis factor ligand …: B1 Tumor necrosis factor ligand … with G131K, H269D
B27: R149I: TRAIL DR4 variant, WO 2009/066174 (protein, UniProt P50591 1-281, looked up, variant R149I)
Tumor necrosis factor ligand …: B1 Tumor necrosis factor ligand … with R149I, H269D
B28: R149N: TRAIL DR4 variant, WO 2009/066174 (protein, UniProt P50591 1-281, looked up, variant R149N)
Tumor necrosis factor ligand …: B1 Tumor necrosis factor ligand … with R149N, H269D
B29: K204Y: TRAIL DR4 variant, WO 2009/066174 (protein, UniProt P50591 1-281, looked up, variant K204Y)
Tumor necrosis factor ligand …: B1 Tumor necrosis factor ligand … with K204Y, H269D
B30: S215D: TRAIL DR4 variant, WO 2009/066174 (protein, UniProt P50591 1-281, looked up, variant S215D)
Tumor necrosis factor ligand …: B1 Tumor necrosis factor ligand … with S215D, H269D
B31: N199R/K201H: TRAIL DR4 variant, WO 2009/066174 (protein, UniProt P50591 1-281, looked up, variant N199R K201H)
Tumor necrosis factor ligand …: B1 Tumor necrosis factor ligand … with N199R, K201H, H269D
B32: Y189Q/R191K/Q193R/H264R/I266L/D267Q: TRAIL DR4 variant, MacFarlane 2005 (protein, UniProt P50591 1-281, looked up, variant Y189Q R191K Q193R H264R I266L D267Q)
Tumor necrosis factor ligand …: B1 Tumor necrosis factor ligand … with Y189Q, R191K, Q193R, H264R, I266L, D267Q, H269D
B33: K201R: TRAIL DR4 variant, WO 2009/066174 (protein, UniProt P50591 1-281, looked up, variant K201R)
Tumor necrosis factor ligand …: B1 Tumor necrosis factor ligand … with K201R, H269D
B34: S159R: TRAIL DR4 variant, WO 2009/066174 (protein, UniProt P50591 1-281, looked up, variant S159R)
Tumor necrosis factor ligand …: B1 Tumor necrosis factor ligand … with S159R, H269D
B35: R149M: TRAIL DR4 variant, WO 2009/066174 (protein, UniProt P50591 1-281, looked up, variant R149M)
Tumor necrosis factor ligand …: B1 Tumor necrosis factor ligand … with R149M, H269D
B36: K204D: TRAIL DR4 variant, WO 2009/066174 (protein, UniProt P50591 1-281, looked up, variant K204D)
Tumor necrosis factor ligand …: B1 Tumor necrosis factor ligand … with K204D, H269D

The first series addresses DR5 (Homo sapiens, UniProt O14763). Particulars: in words; known from WO 2009/077857, Van der Sloot 2006, MacFarlane 2005, WO 01/00832; cited from earlier work.
In the case of B1, the “affinity for DR5” value is “increased affinity for DR5”. On to B2, for which the “affinity for DR5” value was “increased affinity for DR5”. Consider B3, for which the “affinity for DR5” value is recorded as “increased affinity for DR5”. Turning to B4, the “affinity for DR5” value is listed as “increased affinity for DR5”.

B5: the “affinity for DR5” value is “increased affinity for DR5”.

Another series has as its target DR4 (Homo sapiens, UniProt O00220). Particulars: in words; known from WO 2009/066174, MacFarlane 2005; cited from earlier work.
As for B6, the “affinity for DR4” value is listed as “increased affinity for DR4”.

As to B7, the “affinity for DR4” value is recorded as “increased affinity for DR4”. With B8, the “affinity for DR4” value is “increased affinity for DR4”. Regarding B9, the “affinity for DR4” value is listed as “increased affinity for DR4”. For B10, the “affinity for DR4” value was “increased affinity for DR4”.

Regarding B11, the “affinity for DR4” value is “increased affinity for DR4”. As to B12, the “affinity for DR4” value is listed as “increased affinity for DR4”. Regarding B13, the “affinity for DR4” value is on record as “increased affinity for DR4”.

As to B14, the “affinity for DR4” value is on record as “increased affinity for DR4”.

In the case of B15, the “affinity for DR4” value is “increased affinity for DR4”. B16: the “affinity for DR4” value is given as “increased affinity for DR4”.

For the molecule B17, the “affinity for DR4” value is on record as “increased affinity for DR4”. For B18, the “affinity for DR4” value was “increased affinity for DR4”. Regarding B19, the “affinity for DR4” value was “increased affinity for DR4”. For the molecule B20, the “affinity for DR4” value was “increased affinity for DR4”. In the case of B21, the “affinity for DR4” value is reported as “increased affinity for DR4”. On to B22, for which the “affinity for DR4” value is “increased affinity for DR4”. With B23, the “affinity for DR4” value is “increased affinity for DR4”. As for B24, the “affinity for DR4” value was “increased affinity for DR4”. For the molecule B25, the “affinity for DR4” value was “increased affinity for DR4”. As for B26, the “affinity for DR4” value is recorded as “increased affinity for DR4”. As for B27, the “affinity for DR4” value is reported as “increased affinity for DR4”.

For B28, the “affinity for DR4” value is on record as “increased affinity for DR4”. On to B29, for which the “affinity for DR4” value is reported as “increased affinity for DR4”. Regarding B30, the “affinity for DR4” value is recorded as “increased affinity for DR4”. With B31, the “affinity for DR4” value was “increased affinity for DR4”. Take B32: the “affinity for DR4” value is listed as “DR4 variants”. B33: the “affinity for DR4” value is recorded as “increased affinity for DR4”.

B34: the “affinity for DR4” value was “increased affinity for DR4”. Consider B35, for which the “affinity for DR4” value is “increased affinity for DR4”. Regarding B36, the “affinity for DR4” value is listed as “increased affinity for DR4”.
